How the values were obtained:
[1] = target: StayGold (Cytaeis uchidae (parent GFP)); assay: SEC; Superdex 75 Increase 10/300 GL, ~2 mg ml^−1 (76 μM) protein loaded via 100 μl loop, 0.8 ml min^−1, 150 mM NaCl, 20 mM HEPES pH 7.2; monomer and dimer percentages from integrated peak areas; dimer to monomers
[2] = as above

Substance	stoichiometry N [1]	percent dimer (SEC peak areas) [2]	percent monomer (SEC peak areas) [2]
StayGold	2	the original StayGold is ~98% dimer	
mStayGold (StayGold E138D)			the E138D mutant is more than 99% monomer
